The IC90 is the point of the concentration-response curve where the effect stands at 90%. Higher therefore signals a need for much substance.

For test [1], the target named is T1, native form of CXCR4 expressed at the cell surface of monocytes and T lymphocytes (Homo sapiens, UniProt P61073).
T1 construct: the native form of CXCR4 expressed at the cell surface of monocytes and T lymphocytes; endogenous in cells; host or cells: whole blood (buffy coat) of a healthy donor; CD14+ monocytes and CD3+ T cells
T1 sequence (P61073 whole entry): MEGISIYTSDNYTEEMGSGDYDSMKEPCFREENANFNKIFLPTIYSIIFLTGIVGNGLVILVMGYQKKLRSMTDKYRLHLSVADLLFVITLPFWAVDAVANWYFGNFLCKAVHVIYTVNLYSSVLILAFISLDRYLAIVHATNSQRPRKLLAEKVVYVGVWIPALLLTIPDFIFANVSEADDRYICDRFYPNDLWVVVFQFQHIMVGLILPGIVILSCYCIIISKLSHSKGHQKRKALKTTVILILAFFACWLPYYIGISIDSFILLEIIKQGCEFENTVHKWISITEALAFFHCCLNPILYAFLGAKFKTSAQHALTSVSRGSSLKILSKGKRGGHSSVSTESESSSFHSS
Nature of the test: FACS binding to peripheral blood mononuclear cells (whole blood). The settings on record: CD3 positive and CD14 positive cells, whole blood of healthy donor. As to the method:
Blood was collected as buffy coat from healthy donor. 100 μl of whole blood was incubated with anti-human CXCR4 antibodies (clones 515H7 and 301aE5) at the indicated concentration for 20 minutes at 4° C. Blood was washed three times in PBS-BSA 1%-NaN3 0.01% and incubated with goat anti-human Alexa 488 IgG diluted 1:500 (Invitrogen) for 20 minutes at 4° C. Cells were then washed and incubated with CD14-PE (Caltag) or CD3-PE (Caltag) for 10 minutes at 4° C. and washed three times. Red blood cells were lysed with High-Yield lyse solution (Caltag) for 10 minutes at room temperature. Cells were analyzed immediately using Facscalibur (Becton-Dickinson). CXCR4 expression on monocytes was done on CD14 positive cells and CXCR4 expression on T cell was done on CD3 positives cells (FIG. 1). Results are expressed in Antigen Binding Capacity (ABC).
For orientation: In flow cytometry, cells or beads pass a laser one at a time.

Test [2] concerns HIV-1 primary isolate KON (X4 virus). Nature of the test: HIV-1 KON replication in PHA-activated human PBMC, single cycle neutralization, p24 FACS (Example 5). It counts as cell-based. The settings on record: HIV-1 KON replication in PBMC, molar value in brackets. As to the method:
PBMC from normal donors seronegative for HIV-1 were isolated from buffy coats or cytapheresis by Ficoll-Hypaque gradient centrifugation. PBMC were activated in the presence of PHA in RPMI 1640 cell culture medium containing 25 mM HEPES, 5 ml penicillin (10000 U/ml)-streptomycin (10000 μg/ml) 2 mM L-glutamine, supplemented with 10% heat-inactivated FCS and were used as cellular targets in a single cycle neutralization assay. HIV-1 replication in primary human PBMC was performed by analyzing intracellular staining of viral p24 antigen by FACS analysis. Briefly, 25 μl per well of various dilutions of Mabs 515H7, 301aE5 and 12G5 (R&D Systems) or culture medium as control (RPMI 1640, 10% FCS, 0.1% IL-2), were incubated for 1 h at 37° C. with 25 μl per well of HIV-1 KON X4 primary isolate dilution, in duplicate. PHA-activated human PBMC (25 μl/well) at 20×10^6 cells/ml were added to the Mab/virus mixture in a 96-well plate (U-bottom, Costar 3599) and cultured for 24 to 36 hours at 37° C. in RPMI 1640 10% FCS and 0.1% IL-2. […] To detect HIV-infected PBMC, intracellular staining of viral p24 antigen was performed and analyzed by flow cytometry. […] The percentage of p24-positive cells in the different samples was determined by gating 20,000 events on a living cell population. The living cell subsets were analyzed for p24 expression relative to background staining of uninfected cells. […]

B1: 515H7: murine anti-CXCR4 monoclonal antibody; light chain variable domain SEQ ID No. 7, heavy chain variable domain SEQ ID No. 8 (antibody, listed as Mus musculus, V domains shown)
VH: EVNLVESGGGLVQPGGSLRLSCATSGFTFTDNYMSWVRQPPGKALEWLGFIRNKANGYTTDYSASVRGRFTISRDNSQSILYLQMNALRAEDSATYYCARDVGSNYFDYWGQGTTLTVSS
VL: DIVMSQSPSSLAVSAGEKVTMSCKSSQSLFNSRTRKNYLAWYQQKPGQSPKLLIYWASARDSGVPARFTGSGSETYFTLTISRVQAEDLAVYYCMQSFNLRTFGGGTKLEIK
As to B1, in test [1], the “staining of T lymphocytes and monocytes” value is “stained both T lymphocytes (FIG. 2A) and monocytes (FIG. 2B)”. In test [2], this molecule yielded an IC90 of 66 nM.

B2: 301aE5: murine anti-CXCR4 monoclonal antibody; light chain variable domain SEQ ID No. 34, heavy chain variable domain SEQ ID No. 35 (antibody, listed as Mus musculus, V domains shown)
VH: QVQLKESGPGLVAPSQSLSITCTVSGFSLTDYGVYWVRQPPGKGLEWLGMIWGDGTTDYNSALKSRLSISKDNSKSQVFLKMNTLQTDDTARYYCARGRQFGFDYWGQGTTLTVSS
VL: DIVMSQSPSSLAVSAGEKVTMRCKSSQSLFNSRTRKNYLAWYQQKPGQSPKLLIFWASIRESGVPDRFTGSGSGTDFTLTISSVQAEDLAVYYCKQSYNLRTFGGGTKLEIK
B2: in test [1], the “staining of T lymphocytes and monocytes” value is “stained both T lymphocytes (FIG. 2A) and monocytes (FIG. 2B)”. The molecule further displayed an IC90 in test [2] of 1000 nM.

These data come from patent publication US9090686B2, “Antibodies for the treatment of HIV” (Pierre Fabre Medicament, priority 2009, dated 2015).
